Consider six molecules from paper PMC8115485 (Nature Communications, 2021).

Where a chain is given by its changes, count along the chain named. Names and notes keep the numbering of the source.

For assay [1], the target named is T1, HisH (Thermotoga maritima, UniProt Q9X0C8, C84A).
T1 construct: HisFH-hC84A complex; with HisF
T1 sequence (Q9X0C8 1-201 C84A): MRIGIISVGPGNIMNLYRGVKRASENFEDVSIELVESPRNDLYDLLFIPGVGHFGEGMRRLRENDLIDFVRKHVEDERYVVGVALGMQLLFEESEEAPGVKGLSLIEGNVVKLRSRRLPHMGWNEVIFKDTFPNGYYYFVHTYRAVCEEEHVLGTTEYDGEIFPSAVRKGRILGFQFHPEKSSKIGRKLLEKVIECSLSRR
T1 sequence (Q9X0C6 1-253 partner): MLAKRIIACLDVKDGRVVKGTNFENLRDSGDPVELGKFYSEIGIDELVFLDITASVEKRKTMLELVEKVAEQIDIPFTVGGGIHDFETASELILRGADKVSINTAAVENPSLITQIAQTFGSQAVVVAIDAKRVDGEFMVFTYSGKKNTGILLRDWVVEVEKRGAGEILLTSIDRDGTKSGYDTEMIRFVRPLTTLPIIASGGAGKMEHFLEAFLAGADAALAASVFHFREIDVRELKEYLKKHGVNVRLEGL
As to the kind of experiment: X-ray crystal structure at […] Å. It counts as binding.

For assay [2], the target named is T2, HisH (Thermotoga maritima, UniProt Q9X0C8).
T2 sequence (Q9X0C8 1-201): T1 sequence (Q9X0C8 1-201 C84A) with A84C
T2 sequence (Q9X0C6 1-253 partner): T1 sequence (Q9X0C6 1-253 partner)
As to the kind of experiment: NMR titration (methyl TROSY). On the set-up: WT HisFH complex; with HisF. Type of assay: binding.

Assay [3] addresses T3, HisH (Thermotoga maritima, UniProt Q9X0C8, C84S).
T3 sequence (Q9X0C8 1-201 C84S): T1 sequence (Q9X0C8 1-201 C84A) with A84S
T3 sequence (Q9X0C6 1-253 partner): T1 sequence (Q9X0C6 1-253 partner)
As to the kind of experiment: biochemical.

A further assay deals with T4, HisF (Thermotoga maritima, UniProt Q9X0C6).
T4 construct: HisF-wt without tag, in the HisFH-hC84A complex; with HisH (hC84A)
T4 sequence (Q9X0C6 1-253): T1 sequence (Q9X0C6 1-253 partner)
T4 sequence (Q9X0C8 1-201 C84A partner): T1 sequence (Q9X0C8 1-201 C84A)
As to the kind of experiment: X-ray crystal structure at […] Å; NMR titration; glutaminase activation. Type of assay: binding.

The target in assay [4] is T3, HisH. As to the kind of experiment: NMR titration in the presence of ProFAR. It counts as binding. On the set-up: HisFH-hC84S complex; with HisF.
Assay [5] has as its target T5, HisF, cyclase subunit of imidazole glycerol phosphate synthase from Thermotoga maritima, wild type, without … (Thermotoga maritima, UniProt Q9X0C6 1-253).
T5 construct: HisF of Thermotoga maritima, Uniprot ID Q9X0C6; Crystallised as the HisFH-hC84A complex; also called HisF-wt; source: E. coli, expressed separately; cell lysate combined with that of HisH before the NiNTA column, complex purified (NiNTA, SEC)
T5 sequence: T1 sequence (Q9X0C6 1-253 partner)
As to the kind of experiment: crystal structure; HisFH-hC84A complex at 30 mg/ml in 10 mM Tris-HCl pH 8.0, 100 mM NaCl; hanging drop, 18 °C, 10 mM L-glutamine, 10 mM ProFAR added by soaking; 2.06 Å; three HisFH complexes in the asymmetric unit. As to conditions: both partners purified.

Assay [6] concerns the target T6, HisF, cyclase subunit of imidazole glycerol phosphate synthase from Thermotoga maritima, wild type (NMR … (Thermotoga maritima, UniProt Q9X0C6 1-253)).
T6 construct: HisF of Thermotoga maritima, Uniprot ID Q9X0C6; Deuterated and 15N labelled where HisF is observed; also called WT HisF; HisF-wt; source: E. coli BL21-CodonPlus (DE3)-RIL or BL21 Gold (DE3), purified (heat shock, NiNTA, TEV digestion, SEC); not shown: His-tag, N-terminal, cleaved
T6 sequence: T1 sequence (Q9X0C6 1-253 partner)
As to the kind of experiment: NMR spectra (TROSY, methyl-TROSY) of the complex reconstituted by SEC; HisF and HisH combined at a 1.3/1 ratio after TEV digestion, free HisF removed on Superdex 75 in NMR buffer (50 mM NaCl, 20 mM HEPES pH 7.3, 1 mM DTT); spectra at 30 °C, 50-150 µM protein. As to conditions: both partners purified. On the technique in general: Size exclusion chromatography separates by hydrodynamic size, large species first.

The target in assay [7] is T7, HisF from Thermotoga maritima, K19A mutant (Thermotoga maritima, UniProt Q9X0C6 1-253, fK19A).
T7 construct: HisF of Thermotoga maritima, Uniprot ID Q9X0C6; also called fK19A; source: E. coli, purified
T7 sequence (looked up): T1 sequence (Q9X0C6 1-253 partner) with K19A
The description is as above. As to conditions: both partners purified.

The target in assay [8] is T8, HisF from Thermotoga maritima, F23A mutant (Thermotoga maritima, UniProt Q9X0C6 1-253, fF23A).
T8 construct: HisF of Thermotoga maritima, Uniprot ID Q9X0C6; also called fF23A; source: E. coli, purified
T8 sequence (looked up): T1 sequence (Q9X0C6 1-253 partner) with F23A
The assay is described as above. As to conditions: both partners purified.

Assay [9] concerns the target T9, HisF from Thermotoga maritima, D98E mutant (Thermotoga maritima, UniProt Q9X0C6 1-253, fD98E).
T9 construct: HisF of Thermotoga maritima, Uniprot ID Q9X0C6; also called fD98E; HisF-D98E; source: E. coli, purified
T9 sequence (looked up): T1 sequence (Q9X0C6 1-253 partner) with D98E
The description is as above. The settings on record: both partners purified.

In assay [10] the target is T10, HisF from Thermotoga maritima, V48A mutant (Thermotoga maritima, UniProt Q9X0C6 1-253, fV48A).
T10 construct: HisF of Thermotoga maritima, Uniprot ID Q9X0C6; also called fV48A; source: E. coli, purified
T10 sequence (looked up): T1 sequence (Q9X0C6 1-253 partner) with V48A
The description is as above. The settings on record: both partners purified.

In the case of `NC(=O)CC[C@H](N)C(=O)O` [Gln], the “X-ray crystal structure at 2.06 Å” value at HisH [1] is on record as “The asymmetric unit contains three HisFH complexes”. In addition, the values for the Kd on HisH [2] and at HisH [3] were 1.3 ± 0.1 mM and 1.7 ± 0.1 mM, respectively.
With `NC(=O)c1ncn([C@@H]2O[C@H](COP(=O)(O)O)[C@@H](O)[C@H]2O)c1N=CN[C@@H]1O[C@H](COP(=O)(O)O)[C@@H](O)[C@H]1O` [ProFAR], on HisF, the “X-ray crystal structure at 2.06 Å; NMR titration; glutaminase activation” value is on record as “the HisF active site shows unambiguous electron density for a ProFAR molecule”.
In the case of `NC(=O)NC[C@H](N)C(=O)O` [Albizziin], the “NMR titration in the presence of ProFAR” value at HisH [4] is “for the HisFH–hC84S mutant the active conformation is clearly visible”.

B1: HisH, glutaminase subunit of imidazole glycerol phosphate synthase from Thermotoga maritima, C84A mutant (crystallisation construct) (enzyme)
chain: T1 sequence (Q9X0C8 1-201 C84A)
notes: HisH of Thermotoga maritima, Uniprot ID Q9X0C8; also called hC84A; HisH-C84A; source: E. coli, expressed separately; cell lysate combined with that of HisF before the NiNTA column, complex purified (NiNTA, SEC)
Take B1: in [5], the binding result is “binds”.

B2: HisH from Thermotoga maritima, C84A mutant (NMR samples) (enzyme, UniProt Q9X0C8 1-201, looked up)
chain: T1 sequence (Q9X0C8 1-201 C84A)
notes: HisH of Thermotoga maritima, Uniprot ID Q9X0C8; probably the same construct as m2, kept apart because the state of the tag is told only for the labelled proteins; also called hC84A; source: E. coli BL21-CodonPlus (DE3)-RIL, purified (heat shock, NiNTA, TEV digestion, SEC); not shown: His-tag, N-terminal, cleaved
For B2, in assay [6], the binding result is recorded as “binds”.

B3: HisH, glutaminase subunit of imidazole glycerol phosphate synthase from Thermotoga maritima, C84S mutant (enzyme, UniProt Q9X0C8 1-201, looked up)
chain: T1 sequence (Q9X0C8 1-201 C84A) with A84S
notes: HisH of Thermotoga maritima, Uniprot ID Q9X0C8; Deuterated, ILMVA methyl labelled or histidine ring-13C2 labelled for NMR; also called hC84S; HisH-C84S; source: E. coli BL21-CodonPlus (DE3)-RIL, purified (heat shock, NiNTA, TEV digestion, SEC); not shown: His-tag, N-terminal, cleaved
On to B3, for which the binding result in assay [7], in assay [8], in assay [9], in assay [10] and in assay [6] was “binds” in each case.

A word on the Kd: it is the concentration at which binding is half-saturated. A higher Kd goes with weaker binding.
